Source: patent US20220331426A1, “METHODS OF TREATING CANCER USING TIGIT INHIBITORS AND ANTI-CANCER AGENTS” (Genentech, Inc., priority 2014, published 2022)

B1: 10A7: hamster-anti-mouse anti-TIGIT antibody; light chain SEQ ID NO:13, heavy chain SEQ ID NO:15 (antibody, V domains shown)
VH: EVQLVESGGGLTQPGKSLKLSCEASGFTFSSFTMHWVRQSPGKGLEWVAFIRSGSGIVFYADAVRGRFTISRDNAKNLLFLQMNDLKSEDTAMYYCARRPLGHNTFDSWGQGTLVTVSS
VL: DIVMTQSPSSLAVSPGEKVTMTCKSSQSLYYSGVKENLLAWYQQKPGQSPKLLIYYASIRFTGVPDRFTGSGSGTDYTLTITSVQAEDMGQYFCQQGINNPLTFGDGTKLEIKR
B2: 1F4: hamster-anti-mouse anti-TIGIT antibody; light chain SEQ ID NO:14, heavy chain SEQ ID NO:16 (antibody, V domains shown)
VH: EVQLQQSGPELVKPGTSMKISCKASGYSFTGHLMNWVKQSHGKNLEWIGLIIPYNGGTSYNQKFKGKATLTVDKSSSTAYMELLSLTSDDSAVYFCSRGLRGFYAMDYWGQGTSVTVSS
VL: DVVLTQTPLSLSVSFGDQVSISCRSSQSLVNSYGNTFLSWYLHKPGQSPQLLIFGISNRFSGVPDRFSGSGSGTDFTLKISTIKPEDLGMYYCLQGTHQPPTFGPGTKLEVK

Target: T1, human TIGIT (Homo sapiens, UniProt Q495A1)
T1 sequence (Q495A1 22-244): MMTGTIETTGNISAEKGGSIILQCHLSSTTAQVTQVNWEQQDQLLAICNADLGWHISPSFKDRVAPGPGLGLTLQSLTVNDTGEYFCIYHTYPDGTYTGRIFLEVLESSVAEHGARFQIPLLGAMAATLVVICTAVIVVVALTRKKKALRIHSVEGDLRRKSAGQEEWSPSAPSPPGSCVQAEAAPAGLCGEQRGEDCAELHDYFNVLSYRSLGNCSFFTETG
Assay: binding of anti-TIGIT antibodies to human TIGIT
Conditions: hamster-anti-mouse anti-TIGIT antibodies; qualitative statement, no method given

| Molecule | specific binding to human TIGIT |
| --- | --- |
| B1 | specifically bound |
| B2 | specifically bound |
